Results published in US12479928B2, “Anti-cancer peptide” (Minerva Biotechnologies Corporation, priority 2014, dated 2025).
Where “and” joins values, the source holds several entries; their conditions need not be identical. Equal entries are not always repeated.

Tests used:
[1] = test system: T47D human breast cancer cells xenografted; assay: Xenograft of NME7-AB cultured floater cells in nu/nu mice with daily NME7-AB injection; type: in vivo, female nu/nu athymic mice
Procedure: The freshly harvested floater metastatic cells were xenografted into the flank of female nu/nu athymic mice that have been implanted with 90-day slow release estrogen pellets. Floater cells were xenografted with 10,000, 1,000, 100 or 50 cells each. Half of the mice in each group of 6 were also injected daily with 32 nM NME7-AB near the original implantation site. The parent T47D cells that were cultured in RPMI media without NME7-AB were also implanted into mice at 6 million, 10,000 or 100 as controls. Mice implanted with the NME7-induced floater cells developed tumors even when as few as 50 cells were implanted. Mice that were implanted with the floater cells and that received daily injections of NME7-AB also developed remote tumors or remote metastases in various organs (FIG. 20-25). 11 out of the 12 mice, or 92%, that were injected with human NME7-AB after implantation of the NME7-AB cultured cancer cells developed tumors at the injection site. Only 7 out of the 12 mice, or 58%, that were not injected with human NME7-AB after implantation developed tumors. […] None of the mice that were not injected with NME7-AB developed multiple, visible tumors.
The freshly harvested floater metastatic cells are xenografted into the flank of female nu/nu athymic mice that have been implanted with 90-day slow release estrogen pellets. Floater cells were xenografted as 10,000, 1,000, 100 or 50 cells each. Half of the mice in each group of 6 were also injected daily with 32 nM NME7-AB near the original implantation site. The parent T47D cells that were cultured in RPMI media without NME7-AB were also implanted into mice as 6 million, 10,000 or 100 as controls. Mice implanted with the NME7-induced floater cells developed tumors even when as few as 50 cells were implanted. Mice that were implanted with the floater cells and that received daily injections of NME7-AB also developed remote tumors or remote metastases in various organs (FIG. 20-25). 11 out of the 12 mice, or 92%, that were injected with human NME7-AB after implantation of the NME7-AB cultured cancer cells, developed tumors at the injection site. Only 7 out of the 12 mice, or 58%, that were not injected with human NME7-AB after implantation developed tumors. 9 out of the 11 mice, or 82%, that got tumors and were injected with human NME7-AB developed multiple tumors remote from the injection site. None of the mice that were not injected with NME7-AB developed multiple, visible tumors.

[2] = biological target: T1, PSMGFR peptide (MUC1* extracellular domain) (Homo sapiens, UniProt P15941); assay: Sandwich ELISA: NME7-AB dimerizes MUC1* extra cellular domain peptide; type: binding
T1 construct: The PSMGFR peptide bearing a C-terminal Cysteine (PSMGFR-Cys) was covalently coupled to BSA; made in house; host or cells: E. coli (NME7-AB)
T1 sequence (P15941 1110-1154 limits assumed) 1: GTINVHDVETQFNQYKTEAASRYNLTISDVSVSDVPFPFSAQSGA
T1 sequence (Q9Y5B8 92-376 partner limits assumed): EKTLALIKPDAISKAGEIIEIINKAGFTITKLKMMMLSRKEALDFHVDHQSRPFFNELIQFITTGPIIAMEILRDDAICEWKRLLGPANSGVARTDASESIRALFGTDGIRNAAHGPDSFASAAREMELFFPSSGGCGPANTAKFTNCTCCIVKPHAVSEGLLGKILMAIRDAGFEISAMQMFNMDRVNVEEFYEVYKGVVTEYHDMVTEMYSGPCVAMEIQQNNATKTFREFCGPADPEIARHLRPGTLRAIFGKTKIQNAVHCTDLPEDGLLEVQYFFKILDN
T1 sequence (P15941 1110-1154 limits assumed) 3: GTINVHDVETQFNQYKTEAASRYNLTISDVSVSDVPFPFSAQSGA
Procedure: The PSMGFR peptide bearing a C-terminal Cysteine (PSMGFR-Cys) was covalently coupled to BSA using Imject Maleimide activated BSA kit (Thermo Fisher). PSMGFR-Cys coupled BSA was diluted to 10 ug/mL in 0.1M carbonate/bicarbonate buffer pH 9.6 and 50 uL was added to each well of a 96 well plate. After overnight incubation at 4° C., the plate was washed twice with PBS-T and a 3% BSA solution was added to block remaining binding site on the well. After 1 h at RT the plate was washed twice with PBS-T and NME7, diluted in PBS-T+1% BSA, was added at different concentrations. After 1 h at RT the plate was washed 3× with PBS-T and anti-NM23-H7 (B-9, Santa Cruz Biotechnology), diluted in PBS-T+1% BSA, was added at 1/500 dilution. […] After 1 h at RT the plate was washed 3× with PBS-T and binding of NME7 was measured at 415 nm using ABTS solution (Pierce). […]
After 1 h at RT the plate was washed 3× with PBS-T and HisTagged PSMGFR peptide (PSMGFR-His) or biotinylated PSMGFR peptide (PSMGFR-biotin), diluted in PBS-T+1% BSA, was added at different concentration. […] After 1 h at RT the plate was washed 3× with PBS-T and binding of PSMGFR peptide to NME7 already bound to another PSMGFR peptide (which could not signal by anti-His antibody or by streptavidin) coupled BSA was measured at 415 nm using a ABTS solution (Pierce).

[3] = test system: SK-OV3 ovarian cancer cell line; assay: RT-PCR of metastatic markers after culture in NME7-AB, SK-OV3; type: cell-based, human; details: 72 or 144 hours
Description: (§1) FIGS. 37A-37C show graphs of RT-PCR measurements of metastatic markers in cancer cells after being cultured in a serum-free media containing NME7-AB compared to the standard media.

[4] = test system: MDA-MB breast cancer cell line; assay: RT-PCR of metastatic markers after culture in NME7-AB, MDA-MB; type: cell-based, human; details: serum-free media containing NME7-AB
Procedure: as §1
Ovarian cancer cells, pancreatic cancer cells and melanoma cells were also cultured in NME7-AB and were transformed to a more metastatic state after as few as 3 days in culture.

B1: NME7-AB: recombinant human NME7 devoid of the DM10 domain, NDPK A and B domains, about 33 kDa monomer (protein)
chain: MEKTLALIKPDAISKAGEIIEIINKAGFTITKLKMMMLSRKEALDFHVDHQSRPFFNELIQFITTGPIIAMEILRDDAICEWKRLLGPANSGVARTDASESIRALFGTDGIRNAAHGPDSFASAAREMELFFPSSGGCGPANTAKFTNCTCCIVKPHAVSEGLLGKILMAIRDAGFEISAMQMFNMDRVNVEEFYEVYKGVVTEYHDMVTEMYSGPCVAMEIQQNNATKTFREFCGPADPEIARHLRPGTLRAIFGKTKIQNAVHCTDLPEDGLLEVQYFFKILDN
[1]; cells pre-cultured in NME7-AB
  number of implanted NME7-induced floater cells that developed tumors: ≤ 50 cells
[1]; injected daily with 32 nM NME7-AB, 11 out of 12 mice
  mice that developed tumors at the injection site: 92%
[1]; injected daily with NME7-AB, 9 out of 11 mice with tumors
  mice that developed multiple tumors remote from the injection site: 82% and 80%
[1]; xenografted into test animals
  engraftment rate of cancer cells cultured in NME7-AB: over 90%
[2]
  simultaneous binding of PSMGFR peptides: simultaneously binds to two PSMGFR peptides
[3]
  metastatic marker expression after culture in NME7-AB: increase expression of metastatic markers CHD1, SOX2 and NME7-X1
[4]
  metastatic marker expression after culture in NME7-AB: increased expression of metastatic markers CDH1 aka E-cadherin and SOX2
